Measurements published in patent publication US20110262444A1.

Biological target: rabbit polyclonal antibodies for Peptide 2 (CRNGDD, SEQ ID NO: 2)
Test: Western blot, inhibition of H6D antibody binding to CRNGDD-BSA by free peptide, 10 µg peptide/µl antiserum

**Q.** CRNGDD [CRNGDD (SEQ ID NO: 2) peptide, free] was tested. Which percent inhibition did it give?
**A.** 81%
